{
  "source": "patent US20240209084A1",
  "about": "(CYTOARM, published 2024)",
  "binders": {"B1": {"name": "CTA03Fab/CTAT11scFv (bispecific antibody)", "heavy": "EVQLLESGGGLVQPGGSLRLSCAASGFTFSSFPMAWVRQAPGKGLEWVSTISTSGGRTYYRDSVKGRFTISRDNSKNTLYLQMNSLRAEDTAVYYCAKFRQYSGGFDYWGQGTLVTVSSASTKGPSVFPLAPSSKSTSGGTAALGCLVKDYFPEPVTVSWNSGALTSGVHTFPAVLQSSGLYSLSSVVTVPSSSLGTQTYICNVNHKPSNTKVDKKVEPKSCGGGSGGGEVQLVQSGAEVKKPGSSVKVSCKASGYTITDSNIHWVRQAPGQSLEWIGYIYPYNGGTDYNQKFKNRATLTVDNPTNTAYMELSSLRSEDTAFYYCVNGNPWLAYWGQGTLVTVSSGGGGSGGGGSGGGGSDIQLTQSPSTLSASVGDRVTITCRASESLDNYGIRFLTWFQQKPGKAPKLLMYAASNQGSGVPSRFSGSGSGTEFTLTISSLQPDDFATYYCQQTKEVPWSFGQGTKVEVK", "light": "DIQLTQPNSVSTSLGSTVKLSCTLSSGNIENNYVHWYQLYEGRSPTTMIYDDDKRPDGVPDRFSGSIDRSSNSAFLTIHNVAIEDEAIYFCHSYVSSFNVFGGGTKLTVLRQPKAAPSVTLFPPSSEELQANKATLVCLISDFYPGAVTVAWKADSSPVKAGVETTTPSKQSNNKYAASSYLSLTPEQWKSHRSYSCQVTHEGSTVEKTVAPTECS", "notes": "also called antiCD3Fab/anti-CD33scFv"}, "B2": {"name": "CTA03Fab/CTAT12scFv (bispecific antibody)", "heavy": "EVQLLESGGGLVQPGGSLRLSCAASGFTFSSFPMAWVRQAPGKGLEWVSTISTSGGRTYYRDSVKGRFTISRDNSKNTLYLQMNSLRAEDTAVYYCAKFRQYSGGFDYWGQGTLVTVSSASTKGPSVFPLAPSSKSTSGGTAALGCLVKDYFPEPVTVSWNSGALTSGVHTFPAVLQSSGLYSLSSVVTVPSSSLGTQTYICNVNHKPSNTKVDKKVEPKSCGGGSGGGEVQLVESGGGLVQPGGSLRLSCAASGYTFTSYWLHWVRQAPGKGLEWVGMIDPSNSDTRFNPNFKDRFTISADTSKNTAYLQMNSLRAEDTAVYYCATYRSYVTPLDYWGQGTLVTVSSGGGGSGGGGSGGGGSDIQMTQSPSSLSASVGDRVTITCKSSQSLLYTSSQKNYLAWYQQKPGKAPKLLIYWASTRESGVPSRFSGSGSGTDFTLTISSLQPEDFATYYCQQYYAYPWTFGQGTKVEIK", "light": "B1 light", "notes": "also called antiCD3Fab/anti-HGFRscFv"}, "B3": {"name": "CTA03Fab/CTAT13scFv (bispecific antibody)", "heavy": "EVQLLESGGGLVQPGGSLRLSCAASGFTFSSFPMAWVRQAPGKGLEWVSTISTSGGRTYYRDSVKGRFTISRDNSKNTLYLQMNSLRAEDTAVYYCAKFRQYSGGFDYWGQGTLVTVSSASTKGPSVFPLAPSSKSTSGGTAALGCLVKDYFPEPVTVSWNSGALTSGVHTFPAVLQSSGLYSLSSVVTVPSSSLGTQTYICNVNHKPSNTKVDKKVEPKSCGGGSGGGQVQLVQSGAEVKKPGASVKVSCKASGYTFTNYNMHWVRQAPGQRLEWMGTIYPGNDDTSYNQKFKDRVTITADTSASTAYMELSSLRSEDTAVYYCARGGYRAMDYWGQGTLVTVSSGGGGSGGGGSGGGGSDIVMTQSPLSLPVTPGEPASISCRSSQSIVYSNGNTYLGWYLQKPGQSPQLLIYKVSNRFSGVPDRFSGSGSGTDFTLKISRVEAEDVGVYYCFQGSHVPYTFGQGTKLEIK", "light": "B1 light", "notes": "also called antiCD3Fab/anti-CD47scFv"}},
  "key": {"CD33": {"molecular_target": "T1, CD33 (human, UniProt P20138 18-364)", "T1 construct": "whole, on cells; also called CD33^+ human acute myeloid leukemia (HL-60)", "T1 sequence (P20138 18-364)": "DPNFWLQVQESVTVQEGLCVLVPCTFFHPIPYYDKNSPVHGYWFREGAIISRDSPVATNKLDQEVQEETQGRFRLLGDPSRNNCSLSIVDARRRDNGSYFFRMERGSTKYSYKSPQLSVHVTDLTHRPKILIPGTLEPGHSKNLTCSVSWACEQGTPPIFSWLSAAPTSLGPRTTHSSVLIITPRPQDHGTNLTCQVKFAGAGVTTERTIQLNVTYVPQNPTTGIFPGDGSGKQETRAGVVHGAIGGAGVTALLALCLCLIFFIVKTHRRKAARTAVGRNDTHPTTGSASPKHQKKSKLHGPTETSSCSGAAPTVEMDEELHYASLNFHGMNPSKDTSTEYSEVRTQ", "test": "flow cytometry on HL-60 cells (CD33+), FITC goat anti-human IgG Fab", "method": "(§1) Samples were analyzed with FITC conjugated Goat anti-Human IgG Fab antibody and flow cytometry."}, "HGFR": {"molecular_target": "T2, HGFR (human, UniProt P08581 25-1390)", "T2 construct": "whole, on cells; also called cMET; hepatocyte growth factor receptor", "T2 sequence (P08581 25-1390)": "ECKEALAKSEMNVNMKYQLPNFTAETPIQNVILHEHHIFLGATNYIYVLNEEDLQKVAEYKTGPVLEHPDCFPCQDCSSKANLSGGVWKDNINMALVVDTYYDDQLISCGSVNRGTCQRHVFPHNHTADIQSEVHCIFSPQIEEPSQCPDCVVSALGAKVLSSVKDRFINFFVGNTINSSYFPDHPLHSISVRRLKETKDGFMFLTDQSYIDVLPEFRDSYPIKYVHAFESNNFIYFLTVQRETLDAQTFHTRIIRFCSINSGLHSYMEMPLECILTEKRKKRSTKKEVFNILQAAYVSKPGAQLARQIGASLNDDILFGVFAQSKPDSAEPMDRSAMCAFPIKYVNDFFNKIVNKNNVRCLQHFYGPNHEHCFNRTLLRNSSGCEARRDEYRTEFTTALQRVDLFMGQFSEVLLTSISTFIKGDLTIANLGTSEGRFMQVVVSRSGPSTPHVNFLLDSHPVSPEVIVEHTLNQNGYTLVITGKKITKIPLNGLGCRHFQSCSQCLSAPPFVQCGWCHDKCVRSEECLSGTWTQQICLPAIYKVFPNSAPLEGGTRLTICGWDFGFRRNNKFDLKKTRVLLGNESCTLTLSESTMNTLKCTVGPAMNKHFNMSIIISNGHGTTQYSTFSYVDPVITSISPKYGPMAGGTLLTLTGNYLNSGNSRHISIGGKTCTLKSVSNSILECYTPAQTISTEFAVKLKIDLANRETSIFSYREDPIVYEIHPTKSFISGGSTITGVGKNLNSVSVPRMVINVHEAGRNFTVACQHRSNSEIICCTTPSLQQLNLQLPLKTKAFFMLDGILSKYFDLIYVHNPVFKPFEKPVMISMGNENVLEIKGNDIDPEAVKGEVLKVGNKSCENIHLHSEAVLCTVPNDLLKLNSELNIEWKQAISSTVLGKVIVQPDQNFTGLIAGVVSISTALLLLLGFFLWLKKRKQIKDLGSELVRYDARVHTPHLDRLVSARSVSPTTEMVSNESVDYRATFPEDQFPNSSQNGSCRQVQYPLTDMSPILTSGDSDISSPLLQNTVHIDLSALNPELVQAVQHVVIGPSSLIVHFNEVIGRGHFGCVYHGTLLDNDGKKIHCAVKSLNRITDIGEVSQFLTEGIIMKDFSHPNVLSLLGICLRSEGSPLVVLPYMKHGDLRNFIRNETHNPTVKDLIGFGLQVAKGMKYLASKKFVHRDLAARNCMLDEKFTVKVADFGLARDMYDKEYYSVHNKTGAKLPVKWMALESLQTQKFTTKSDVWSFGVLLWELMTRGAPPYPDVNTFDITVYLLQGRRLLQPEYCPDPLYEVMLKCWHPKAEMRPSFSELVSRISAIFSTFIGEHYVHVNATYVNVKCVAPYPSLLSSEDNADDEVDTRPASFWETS", "test": "flow cytometry on A549 cells (HGFR+), FITC goat anti-human IgG Fab", "method": "as §1"}, "CD47": {"molecular_target": "T3, CD47 (human, UniProt Q08722 19-323)", "T3 construct": "whole, on cells; also called CD47^+ breast cancer (MCF7/HER2)", "test": "flow cytometry on MCF-7/HER2 cells (CD47+), FITC goat anti-human IgG Fab", "method": "as §1"}},
  "data": [
    {"binder": "B1", "values": [
      {"measurement": "binding result", "setting": "CD33", "value": "binds"}
    ]},
    {"binder": "B2", "values": [
      {"measurement": "binding result", "setting": "HGFR", "value": "binds"}
    ]},
    {"binder": "B3", "values": [
      {"measurement": "binding result", "setting": "CD47", "value": "binds"}
    ]}
  ]
}
